The data set can be described thus: self-splicing fitness, log relative to wild type (ln ratio); higher = more splicing; Tetrahymena group I intron in knt gene, E. coli kanamycin selection, DiMSum; sequences stand for … in CUCUCU…GGAGGGAAAAGUUAUCAGGCAUGCACCUGGUAGCUAGUCUUUAAACCAAUAGAUUGCAUCGGUUUAAAAGGCAAGACCGUCAAAUUGCGGGAAAGGGGUCAACAGCCGUUCAGUACCAAGUCUCAGGGGAAACUUUGAGAUGGCCUUGCAAAGGGUAUGGUAAUAAGCUGACGGACAUGGUCCUAACCACGCAGCCAAGUCCUAAGUCAACAGAUCUUCUGUUGAUAUGGAUGCAGUUCACAGACUAAAUGUCGGUCGGGGAAGAUGUAUUCUUCUCAUAAGAUAUAGUCGGACCUCUCCUUAAUGGGAGCUAGCGGAUGAAGUGAUGCAACACUGGAGCCGCUGGGAACUAAUUUGUAUGCGAAAGUAUAUUGAUUAGUUUUGGAGUACUCGUGGUCG
Put shortly:
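Pooled colonies went to amplicon sequencing on an Illumina HiSeq 2500 after six replicate transformations. The plates were LB agar with 100 μg/mL carbenicillin, 50 μM IPTG and 0.2% rhamnose, with or without 25 μg/mL kanamycin, incubated overnight at 37°C or 30°C. The E. coli BL21(DE3) library had all eight P1ex-region intron nucleotides randomised, the intron placed in the knt kanamycin-resistance gene on pET-22b(+). DiMSum fitness is the error-weighted combination of replicate fold changes, kanamycin against none, normalised to wild type.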

± gives the uncertainty stated by the source.

As for CACAAGCAAUAUUACGGGGU, the “self-splicing fitness (ln)” value by setting is: (30 °C) -3.61 ± 0.11; (37 °C) -3.18 ± 0.13.
Take CACAAGCAAUAUUACGGUAG: the “self-splicing fitness (ln)” value is -0.991 ± 0.043 (30 °C) and -0.207 ± 0.059 (37 °C).
Regarding CACAAGCAAUAUUACGGUCA, the “self-splicing fitness (ln)” value is, setting by setting: (30 °C) -2.04 ± 0.1; (37 °C) -0.612 ± 0.1.
As for CACAAGCAAUAUUACGGUGA, the “self-splicing fitness (ln)” value is -3.09 ± 0.12 (30 °C) and -0.931 ± 0.085 (37 °C).
Regarding CACAAGCAAUAUUACGGUGU, the “self-splicing fitness (ln)” value (30 °C) was -3.86 ± 0.14 and the “self-splicing fitness (ln)” value (37 °C) is -2.07 ± 0.14.
The corresponding values for CACAAGCAAUAUUACGUAAA are -3.74 ± 0.21 and -2.39 ± 0.23.
CACAAGCAAUAUUACGUCAG: the “self-splicing fitness (ln)” value (30 °C) is -1.25 ± 0.051 and the “self-splicing fitness (ln)” value (37 °C) was -0.508 ± 0.064.
For the sequence CACAAGCAAUAUUACGUGCA, the “self-splicing fitness (ln)” value was -2.56 ± 0.11 (30 °C) and -1.55 ± 0.093 (37 °C).
The corresponding values for CACAAGCAAUAUUACGUGCU are -3.93 ± 0.18 and -2.79 ± 0.15.
The corresponding values for CACAAGCAAUAUUACGUGGC are -3.15 ± 0.21 and -2.64 ± 0.27.
As to CACAAGCAAUAUUACGUUAA, the “self-splicing fitness (ln)” value was -4.3 ± 0.27 (30 °C) and -2.28 ± 0.13 (37 °C).
Consider CACAAGCAAUAUUACGUUCA, for which the “self-splicing fitness (ln)” value was -1.31 ± 0.084 (30 °C) and -1.49 ± 0.089 (37 °C).
Turning to CACAAGCAAUAUUACGUUCC, the “self-splicing fitness (ln)” value by setting is: (30 °C) -3.75 ± 0.19; (37 °C) -2.42 ± 0.23.
The corresponding values for CACCAGCAAUAUUACGAAUG are -0.784 ± 0.039 and 0.236 ± 0.058.
Turning to CACCAGCAAUAUUACGACAC, the “self-splicing fitness (ln)” value (30 °C) was -3.07 ± 0.27 and the “self-splicing fitness (ln)” value (37 °C) was -1.36 ± 0.22.
For the sequence CACCAGCAAUAUUACGACCG, the “self-splicing fitness (ln)” value is -0.000395 ± 0.066 (30 °C) and 0.12 ± 0.089 (37 °C).
With CACCAGCAAUAUUACGACUG, the “self-splicing fitness (ln)” value by setting is: (30 °C) -0.642 ± 0.054; (37 °C) 0.144 ± 0.073.
With CACCAGCAAUAUUACGAGAC, the “self-splicing fitness (ln)” value (37 °C) was -2.02 ± 0.32.
In the case of CACCAGCAAUAUUACGAUAC, the “self-splicing fitness (ln)” value runs as follows: (30 °C) -3.58 ± 0.23; (37 °C) -1.94 ± 0.19.
The corresponding values for CACCAGCAAUAUUACGCACC are -3.63 ± 0.47 and -2.31 ± 0.34.
For the sequence CACCAGCAAUAUUACGCCGA, the “self-splicing fitness (ln)” value by setting is: (30 °C) -2.88 ± 0.19; (37 °C) -1.86 ± 0.21.
In the case of CACCAGCAAUAUUACGCCUG, the “self-splicing fitness (ln)” value runs as follows: (30 °C) -1.11 ± 0.076; (37 °C) -0.247 ± 0.097.
The corresponding values for CACCAGCAAUAUUACGCUCU are -3.85 ± 0.2 and -1.48 ± 0.15.
For CACCAGCAAUAUUACGGACG, the “self-splicing fitness (ln)” value reads like this: (30 °C) -0.37 ± 0.058; (37 °C) 0.374 ± 0.08.
With CACCAGCAAUAUUACGGAGA, the “self-splicing fitness (ln)” value (30 °C) was -1.66 ± 0.11 and the “self-splicing fitness (ln)” value (37 °C) was -2.16 ± 0.14.
As to CACCAGCAAUAUUACGGCAC, the “self-splicing fitness (ln)” value by setting is: (30 °C) -2.38 ± 0.12; (37 °C) -1.09 ± 0.11.
Regarding CACCAGCAAUAUUACGGUCC, the “self-splicing fitness (ln)” value by setting is: (30 °C) -0.606 ± 0.074; (37 °C) -0.037 ± 0.11.
CACCAGCAAUAUUACGGUUU: the “self-splicing fitness (ln)” value (30 °C) was -0.79 ± 0.045 and the “self-splicing fitness (ln)” value (37 °C) was -0.0932 ± 0.065.
CACCAGCAAUAUUACGUCAG: the “self-splicing fitness (ln)” value was -0.342 ± 0.051 (30 °C) and 0.0517 ± 0.067 (37 °C).
In the case of CACCAGCAAUAUUACGUGAU, the “self-splicing fitness (ln)” value was -3.47 ± 0.12 (30 °C) and -3 ± 0.19 (37 °C).
With CACCAGCAAUAUUACGUUCU, the “self-splicing fitness (ln)” value reads like this: (30 °C) -3.76 ± 0.17; (37 °C) -2.65 ± 0.14.
The corresponding values for CACGAGCAAUAUUACGAAAG are -3.34 ± 0.3 and -2.22 ± 0.36.
Regarding CACGAGCAAUAUUACGAAGA, the “self-splicing fitness (ln)” value was -2.89 ± 0.22 (30 °C) and -3.38 ± 0.27 (37 °C).
For CACGAGCAAUAUUACGACGA, the “self-splicing fitness (ln)” value was -3.66 ± 0.48 (30 °C) and -2.24 ± 0.26 (37 °C).
Taken in the same sequence, the figures for CACGAGCAAUAUUACGAGAU were -4.36 ± 0.32 and -3.09 ± 0.26.
Take CACGAGCAAUAUUACGAGCA: the “self-splicing fitness (ln)” value (30 °C) was -4.24 ± 0.39 and the “self-splicing fitness (ln)” value (37 °C) is -3.46 ± 0.4.
Taken in the same sequence, the figures for CACGAGCAAUAUUACGAGGU were -4.07 ± 0.28 and -3.23 ± 0.28.

Values taken from the supplement of paper PMC7877785.
